# Experimental data from patent US20100279930A1 (published 2010).
# Where two headings read alike, the source gives them in different places. No end group written: not given here.
# Assays:
# human Y4 receptor [1] = molecular target: T1, human Y4 receptor (human, UniProt P50391 1-375); test: 125I-PP displacement
# human Y4 receptor [2] = molecular target: T1, human Y4 receptor; test: 125I-PP displacement; remark: listed apart in the source
# T1 sequence (P50391 whole entry): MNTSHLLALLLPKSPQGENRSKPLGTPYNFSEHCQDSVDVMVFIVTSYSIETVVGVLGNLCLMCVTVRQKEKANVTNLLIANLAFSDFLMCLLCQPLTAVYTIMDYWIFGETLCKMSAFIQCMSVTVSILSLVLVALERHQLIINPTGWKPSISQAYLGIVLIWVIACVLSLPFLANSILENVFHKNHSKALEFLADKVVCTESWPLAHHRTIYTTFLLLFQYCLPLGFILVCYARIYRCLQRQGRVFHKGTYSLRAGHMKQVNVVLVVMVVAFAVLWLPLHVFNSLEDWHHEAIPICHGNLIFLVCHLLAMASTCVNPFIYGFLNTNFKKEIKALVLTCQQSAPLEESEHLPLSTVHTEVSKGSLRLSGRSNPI
IC50 (human Y4 receptor [1]),IC50 (human Y4 receptor [2]),Binder
0.065 nM,,APLEPHYPGDNATPEQLAKYAADLRRYINKLTRPRY [4057751]
,0.057 nM,APLEPSYPGDNATPEQMAKYAAELRRYINKLTRPRY [4058147]
,0.053 nM,PLEPVYPGDNATPEQLARYYSELRRYINKLTRPRY [4058296]
0.063 nM,,PLEPHYPGDDATPQQMARYAAELRRYINKLTRPRY [4057898]
0.174 nM,,PAPLEPHYPGDNATPEQMAKYYSELRRYINKLTRPRY [4057763]
,0.059 nM,AAPLEPVYPGDNATPEEMARYYSELRRYINKLTRPRY [4058295]
,0.21 nM,PAPLEIVYPGDNATPEQMARYYSELRRYINKLTRPRY [4058285]
0.088 nM,,AAPLEPSYPGDNATPEQMAHYYSELRRYINKLTRPRY [4057777]
0.134 nM,,PAPLEPTYPGDNATPEQLAHYYSELRRYINKLTRPRY [4057785]
0.078 nM,,AAPLEPTYPGDNATPEQMAHYYSELRRYINKLTRPRY [4057782]
,0.042 nM,AAPLEPVYPGDNATPEQMARYYSELRRYINKLTRPRY [4058280]
0.154 nM,,PAPLEPTYPGDNATPEQMAHYYSELRRYINKLTRPRY [4057783]
,0.043 nM,PAPLEPVYPGDNATPEQLARYYSELRRYINKLTRPRY [4058297]
,0.093 nM,PAPLEAVYPGDNATPEQMARYYSELRRYINKLTRPRY (ends and bridges not checked) [compound of SEQ ID NO:702 (code 4058286)]
,0.056 nM,AAPLEPKYPGDNATPEQLAKYAAELRRYINKLTRPRY [4058166]
0.124 nM,,PAPLEPHYPGDNATPEQMAKYAAALRRYINKLTRPRY [4057756]
0.167 nM,,AAPLEPHYPGDNATPEQMAKYYSELRRYINKLTRPRY [4057762]
0.071 nM,,AAPLEPHYPGDNATPEQLAKYAADLRRYINKLTRPRY [4057752]
0.09 nM,,GAPLEPHYPGDNATPEQMARYAAELRRYINKLTRPRY [4057903]
,0.072 nM,PAPLEPEYPGDNATPEELAKYAAELRRYINKLTRPRY [4058078]

IC50 (human Y4 receptor [1]),IC50 (human Y4 receptor [2]),Binder
,0.07 nM,GAPLEPSYPGDNATPEQMAKYAAELRRYINKLTRPRY [4058149]
,0.072 nM,AAPLEPVYPGDNATPEQLARYYSELRRYINKLTRPRY [4058298]
0.134 nM,,HAPLEPVYPGDNATPEQMAKYAADLRRYINKLTRPRY [4057879]
,0.058 nM,YAPLEPEYPGDNATPEEMAKYAAELRRYINKLTRPRY [4058075]
,0.113 nM,HAPLEPSYPGDNATPEQMAKYAAELRRYINKLTRPRY [4058150]
0.07 nM,,PAPLEPHYPGDNATPEQLAKYAADLRRYINKLTRPRY [4057753]
,0.048 nM,AAPLEPEYPGDNATPEEMAKYAAELRRYINKLTRPRY [4058076]
0.072 nM,,AAPLEPHYPGDNATPEQMAKYAADLRRYINKLTRPRF [4057746]
0.102 nM,,AAPLEPTYPGDNATPEQLAHYYSELRRYINKLTRPRY [4057784]
0.146 nM,,HAPLEPHYPGDNATPEQMAKYAADLRRYINKLTRPRY [4057891]
,0.107 nM,PAPLEPSYPGDNATPEQMAKYAAELRRYINLLTRPRY [4058153]
,0.106 nM,AAPLEPKYPGDNATPEQMAKYAAELRRYINKLTRPRY [4058159]
,0.058 nM,YAPLEPKYPGDNATPEQMAKYAAELRRYINKLTRPRY [4058164]
,0.051 nM,AAPLEPSYPGDNATPEQMAKYAAELRRYINKLTRPRY [4058148]
,0.087 nM,HAPLEPKYPGDNATPEQMAKYAAELRRYINKLTRPRY [4058163]
0.089 nM,,PAPLEPHYPGDNATPEQMAKYAAELRRYINKLTRPRY [4057766]
,0.052 nM,GAPLEPKYPGDNATPEQMAKYAAELRRYINKLTRPRY [4058160]
,0.048 nM,PAPLEPKYPGDNATPEQLAKYAAELRRYINKLTRPRY [4058168]
,0.125 nM,PAPLEPEYPGDNATPEQMAKYAAELRRYINLLTRPRY [4058155]
,0.071 nM,PAPLEPHYPGDNATPEEMAKYAAELRRYINKLTRPRY [4058079]

IC50 (human Y4 receptor [1]),IC50 (human Y4 receptor [2]),Binder
,0.058 nM,YAPLEPSYPGDNATPEQMAKYAAELRRYINKLTRPRY [4058151]
0.085 nM,,PAPLEPSYPGDNATPEQMAKYAAALRRYINLLTRPRY [4058052]
0.066 nM,,PAPLEPHYPGDNATPEQMAKYAADLRRYINKLTRPRF [4057747]
,0.088 nM,PLEPSYPGDNATPEQMAKYAAELRRYINLLTRPRY [4058152]
,0.046 nM,PLEPSYPGDNATPEQMAKYAAELRRYINKLTRPRY [4058146]
,0.051 nM,PLEPEYPGDNATPEEMAKYAAELRRYINKLTRPRY [4058072]
,0.047 nM,PLEPTYPGDNATPEQMARYAAALRRYINKLTRPRY [4058067]
0.144 nM,,PLEPHYPGDNATPEQLAKYAADLRRYINKLTRPRY [4057893]
,0.105 nM,PLEPEYPGDNATPEQMAKYAAELRRYINLLTRPRY [4058154]
0.09 nM,,PLEPHYPGDNATPEQMARYAAELRRYINKLTRPRY [4057900]
,0.063 nM,PLEPKYPGDNATPEQLAKYAAELRRYINKLTRPRY [4058165]
0.1 nM,,APLEPHYPGDDATPQQMARYAAELRRYINLLTRPRY [4058056]
0.07 nM,,PAPLEPHYPGDDATPQQMARYAAELRRYINKLTRPRY [4057897]
0.081 nM,,PAPLEPVYPGDNASPEQMARYAAELRRYINKLTRPRY [4057770]
0.11 nM,,YAPLEPHYPGDDATPQQMARYAAELRRYINLLTRPRY [4058055]
0.111 nM,,PAPLEPHYPGDDATPQQMARYAAELRRYINLLTRPRY [4058057]
,0.03 nM,PAPLEPTYPGDNATPEQMARYAAALRRYINKLTRPRY [4058070]
0.227 nM,,PAPLEPSYPGDDATPQQMAHYYAELRRYINKLTRPRY [4057774]
0.155 nM,,AAPLEPHYPGDDATPQQMAHYYSELRRYINKLTRPRY [4057788]
